# ± gives the uncertainty stated by the source.
# B1: Zinc finger MYM-type protein 3, residues 589 to 668; numbered along this chain, Q14202 (parent)
# chain: LSCHYCHSLFSGKPEVLDWQDQVFQFCCRDCCEDFKRLRGVVSQCEHCRQEKLLHEKLRFSGVEKSFCSEGCVLLYKQDF
# Variants of: B1
# Test: abundance fitness (aPCA) (normalised: wild type 0, dead -1); higher = more abundant; growth selection in yeast, the domain comes from the species named
# Details: Homo sapiens
row,Variant,abundance fitness
1,LSCHYCHSLFSGKPEVLDWQDQVFQFCCRDCCEDFKRLRGVVSQCEHCRQEKPLHEKLRFSGVEKSFCSEGCVLLYKQDF [L53P],-0.091 ± 0.22
2,LSCHYCHSLFSGKPEVLDWQDQVFQFCCRDCCEDFKRLRGVVSQCEHCRQEKMLHEKLRFSGVEKSFCSEGCVLLYKQDF [L53M],-0.234 ± 0.23
3,LSCHYCHSLFSGKPEVLDWQDQVFQFCCRDCCEDFKRLRGVVSQCEHCRQEKNLHEKLRFSGVEKSFCSEGCVLLYKQDF [L53N],-0.163 ± 0.45
4,LSCHYCHSLFSGKPEVLDWQDQVFQFCCRDCCEDFKRLRGVVSQCEHCRQEKKLHEKLRFSGVEKSFCSEGCVLLYKQDF [L53K],0.187 ± 0.34
5,LSCHYCHSLFSGKPEVLDWQDQVFQFCCRDCCEDFKRLRGVVSQCEHCRQEKQLHEKLRFSGVEKSFCSEGCVLLYKQDF [L53Q],-0.255 ± 0.22
6,LSCHYCHSLFSGKPEVLDWQDQVFQFCCRDCCEDFKRLRGVVSQCEHCRQEKTLHEKLRFSGVEKSFCSEGCVLLYKQDF [L53T],-0.196 ± 0.27
7,LSCHYCHSLFSGKPEVLDWQDQVFQFCCRDCCEDFKRLRGVVSQCEHCRQEKWLHEKLRFSGVEKSFCSEGCVLLYKQDF [L53W],-0.676 ± 0.14
8,LSCHYCHSLFSGKPEVLDWQDQVFQFCCRDCCEDFKRLRGVVSQCEHCRQEKGLHEKLRFSGVEKSFCSEGCVLLYKQDF [L53G],-0.445 ± 0.089
9,LSCHYCHSLFSGKPEVLDWQDQVFQFCCRDCCEDFKRLRGVVSQCEHCRQEKVLHEKLRFSGVEKSFCSEGCVLLYKQDF [L53V],-0.056 ± 0.092
10,LSCHYCHSLFSGKPEVLDWQDQVFQFCCRDCCEDFKRLRGVVSQCEHCRQEKLDHEKLRFSGVEKSFCSEGCVLLYKQDF [L54D],-0.589 ± 0.3
11,LSCHYCHSLFSGKPEVLDWQDQVFQFCCRDCCEDFKRLRGVVSQCEHCRQEKLRHEKLRFSGVEKSFCSEGCVLLYKQDF [L54R],-0.664 ± 0.14
12,LSCHYCHSLFSGKPEVLDWQDQVFQFCCRDCCEDFKRLRGVVSQCEHCRQEKLSHEKLRFSGVEKSFCSEGCVLLYKQDF [L54S],-0.542 ± 0.16
13,LSCHYCHSLFSGKPEVLDWQDQVFQFCCRDCCEDFKRLRGVVSQCEHCRQEKLHHEKLRFSGVEKSFCSEGCVLLYKQDF [L54H],-0.503 ± 0.41
14,LSCHYCHSLFSGKPEVLDWQDQVFQFCCRDCCEDFKRLRGVVSQCEHCRQEKLTHEKLRFSGVEKSFCSEGCVLLYKQDF [L54T],-0.226 ± 0.45
15,LSCHYCHSLFSGKPEVLDWQDQVFQFCCRDCCEDFKRLRGVVSQCEHCRQEKLGHEKLRFSGVEKSFCSEGCVLLYKQDF [L54G],-0.536 ± 0.095
16,LSCHYCHSLFSGKPEVLDWQDQVFQFCCRDCCEDFKRLRGVVSQCEHCRQEKLAHEKLRFSGVEKSFCSEGCVLLYKQDF [L54A],-0.41 ± 0.16
17,LSCHYCHSLFSGKPEVLDWQDQVFQFCCRDCCEDFKRLRGVVSQCEHCRQEKLVHEKLRFSGVEKSFCSEGCVLLYKQDF [L54V],-0.046 ± 0.091
18,LSCHYCHSLFSGKPEVLDWQDQVFQFCCRDCCEDFKRLRGVVSQCEHCRQEKLIHEKLRFSGVEKSFCSEGCVLLYKQDF [L54I],0.201 ± 0.23

row,Variant,abundance fitness
1,LSCHYCHSLFSGKPEVLDWQDQVFQFCCRDCCEDFKRLRGVVSQCEHCRQEKLEHEKLRFSGVEKSFCSEGCVLLYKQDF [L54E],-0.866 ± 0.44
2,LSCHYCHSLFSGKPEVLDWQDQVFQFCCRDCCEDFKRLRGVVSQCEHCRQEKLLPEKLRFSGVEKSFCSEGCVLLYKQDF [H55P],0.106 ± 0.19
3,LSCHYCHSLFSGKPEVLDWQDQVFQFCCRDCCEDFKRLRGVVSQCEHCRQEKLLREKLRFSGVEKSFCSEGCVLLYKQDF [H55R],0.057 ± 0.09
4,LSCHYCHSLFSGKPEVLDWQDQVFQFCCRDCCEDFKRLRGVVSQCEHCRQEKLLIEKLRFSGVEKSFCSEGCVLLYKQDF [H55I],0.199 ± 0.35
5,LSCHYCHSLFSGKPEVLDWQDQVFQFCCRDCCEDFKRLRGVVSQCEHCRQEKLLWEKLRFSGVEKSFCSEGCVLLYKQDF [H55W],-0.334 ± 0.17
6,LSCHYCHSLFSGKPEVLDWQDQVFQFCCRDCCEDFKRLRGVVSQCEHCRQEKLLTEKLRFSGVEKSFCSEGCVLLYKQDF [H55T],0.431 ± 0.09
7,LSCHYCHSLFSGKPEVLDWQDQVFQFCCRDCCEDFKRLRGVVSQCEHCRQEKLLNEKLRFSGVEKSFCSEGCVLLYKQDF [H55N],0.027 ± 0.24
8,LSCHYCHSLFSGKPEVLDWQDQVFQFCCRDCCEDFKRLRGVVSQCEHCRQEKLLVEKLRFSGVEKSFCSEGCVLLYKQDF [H55V],-0.006 ± 0.14
9,LSCHYCHSLFSGKPEVLDWQDQVFQFCCRDCCEDFKRLRGVVSQCEHCRQEKLLAEKLRFSGVEKSFCSEGCVLLYKQDF [H55A],-0.286 ± 0.14
10,LSCHYCHSLFSGKPEVLDWQDQVFQFCCRDCCEDFKRLRGVVSQCEHCRQEKLLGEKLRFSGVEKSFCSEGCVLLYKQDF [H55G],-0.126 ± 0.096
11,LSCHYCHSLFSGKPEVLDWQDQVFQFCCRDCCEDFKRLRGVVSQCEHCRQEKLLEEKLRFSGVEKSFCSEGCVLLYKQDF [H55E],-0.392 ± 0.14
12,LSCHYCHSLFSGKPEVLDWQDQVFQFCCRDCCEDFKRLRGVVSQCEHCRQEKLLCEKLRFSGVEKSFCSEGCVLLYKQDF [H55C],-0.053 ± 0.14
13,LSCHYCHSLFSGKPEVLDWQDQVFQFCCRDCCEDFKRLRGVVSQCEHCRQEKLLFEKLRFSGVEKSFCSEGCVLLYKQDF [H55F],0.109 ± 0.12
14,LSCHYCHSLFSGKPEVLDWQDQVFQFCCRDCCEDFKRLRGVVSQCEHCRQEKLLDEKLRFSGVEKSFCSEGCVLLYKQDF [H55D],0.35 ± 0.49
15,LSCHYCHSLFSGKPEVLDWQDQVFQFCCRDCCEDFKRLRGVVSQCEHCRQEKLLQEKLRFSGVEKSFCSEGCVLLYKQDF [H55Q],-0.516 ± 0.39
16,LSCHYCHSLFSGKPEVLDWQDQVFQFCCRDCCEDFKRLRGVVSQCEHCRQEKLLKEKLRFSGVEKSFCSEGCVLLYKQDF [H55K],-0.04 ± 0.17
17,LSCHYCHSLFSGKPEVLDWQDQVFQFCCRDCCEDFKRLRGVVSQCEHCRQEKLLYEKLRFSGVEKSFCSEGCVLLYKQDF [H55Y],0.223 ± 0.38
